# B1: ZNF263 (parent)
# chain: HLTRHQRTHTGEKPYKCTLCGENF
# Variants of: B1
# Test: protein stability index of a GFP-peptide fusion (GPS, HEK-293T) (PSI 1-6); higher = more stable
# Details: c terminus: a fixed tail appended
# 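Also: lentivirally expressed fusions sorted by FACS into six bins by GFP to DsRed ratio, PSI derived from sequencing read proportions per bin multiplied by bin number.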
row,Variant,protein stability index
1,HLTRHQRTHTEEKPYKCTLCGENF,3.92
2,HLTRHQRTHTPEKPYKCTLCGENF,2.86
3,HLTRHQRTHTMEKPYKCTLCGENF,2.84
4,HLTRHQRTHTLEKPYKCTLCGENF,2.99
5,HLTRHQRTHTYEKPYKCTLCGENF,2.17
6,HLTRHQRTHTDEKPYKCTLCGENF,3.25
7,HLTRHQRTHTCEKPYKCTLCGENF,4.07
8,HLTRHQRTHTGEKGYKCTLCGENF,3.58
9,HLTRHQRTHTGEKVYKCTLCGENF,2.77
10,HLTRHQRTHTGEKEYKCTLCGENF,3.21
11,HLTRHQRTHTGEKDYKCTLCGENF,3.65
12,HLTRHQRTHTGEKCYKCTLCGENF,2.52
13,HLTRHQREHTGEKPYKCTLCGENF,3.4
14,HLTRHQRFHTGEKPYKCTLCGENF,2.46
15,HLTRHQRCHTGEKPYKCTLCGENF,2.99
16,HLTRHQRHHTGEKPYKCTLCGENF,2.78
17,HLTRHQRKHTGEKPYKCTLCGENF,2.38
18,HLTRHQRSHTGEKPYKCTLCGENF,3.4
19,HLTRHQRVHTGEKPYKCTLCGENF,2.65
20,HLTRHQRQHTGEKPYKCTLCGENF,3.41
21,HLTRHQRYHTGEKPYKCTLCGENF,2.25
22,HLTRHQRLHTGEKPYKCTLCGENF,2.78
23,HLTRHQRNHTGEKPYKCTLCGENF,3.22
24,HLTRHQRDHTGEKPYKCTLCGENF,3.52

row,Variant,protein stability index
1,HLTRHQRTHTGEKPYKLTLCGENF,2.68
2,HLTRHQRTHTGEKPYKNTLCGENF,3.1
3,HLTRHQRTHTGEKPYKHTLCGENF,2.89
4,HLTRHQRTHTGEKPYKITLCGENF,2.21
5,HLTRHQRTHTGEKPYKDTLCGENF,3.73
6,HLTRHQRTHTGEKPYKSTLCGENF,3.4
7,HLTRHQRTHTGEKPYKKTLCGENF,3.71
8,HLTRHQRTHTGEKPYKATLCGENF,3.24
9,HLTRHQRTHTGEKPYKTTLCGENF,3.06
10,HLTRHQRTHTGEKPYKCTLCQENF,2.85
11,HLTRHQRTHTGEKPYKCTLCAENF,3.27
12,HLTRHQRTHTGEKPYKCTLCIENF,2.41
13,HLTRHQRTHTGEKPYKCTLCSENF,2.99
14,HLTRHQRTHTGEKPYKCTLCDENF,3.26
15,HLTRHQRTHTGEKPYKCTLCVENF,2.26
16,HLTRHQRTHTGEKPYKCTLCKENF,3.42
17,HLTRHQRTHTGEKPYKCTLCRENF,2.46
18,HLTRHQRTHIGEKPYKCTLCGENF,3.13
19,HLTRHQRTHMGEKPYKCTLCGENF,2.48
20,HLTRHQRTHHGEKPYKCTLCGENF,3.19
21,HLTRHQRTHCGEKPYKCTLCGENF,2.96
22,HLTRHQRTHQGEKPYKCTLCGENF,3.44
23,HLTRHQRTHNGEKPYKCTLCGENF,2.44
24,HLTRHQRTHFGEKPYKCTLCGENF,2.73

row,Variant,protein stability index
1,HLTRHQRTHKGEKPYKCTLCGENF,3.12
2,HLTRHQRTHTGEKPYKCTLCGVNF,2.17
3,HLTRHQRTHTGEKPYKCTLCGHNF,3.43
4,HLTRHQRTHTGEKPYKCTLCGGNF,2.31
5,HLTRHQRTHTGEKPYKCTLCGDNF,3.33
6,HLTRHQRTHTGEKPYKCTLCGSNF,2.9
7,HLTRHQRTHTGEKPYKCTLCGRNF,2.29
8,HLTRHQRTHTGEKPYKCTLCGEAF,2.68
9,HLTRHQRTHTGEKPYKCTLCGEFF,2.33
10,HLTRHQRTHTGEKPYKCTLCGELF,2.34
11,HLTRHQRTHTGEKPYKCTLCGEDF,3.33
12,HLTRHERTHTGEKPYKCTLCGENF,2.71
13,HLTRHKRTHTGEKPYKCTLCGENF,2.94
14,HLTRHNRTHTGEKPYKCTLCGENF,2.46
15,HLTRHPRTHTGEKPYKCTLCGENF,2.69
16,HLTRHTRTHTGEKPYKCTLCGENF,2.75
17,HLTRHDRTHTGEKPYKCTLCGENF,2.84
18,HLTRHGRTHTGEKPYKCTLCGENF,2.85
19,HLTRHIRTHTGEKPYKCTLCGENF,2.22
20,HMTRHQRTHTGEKPYKCTLCGENF,3.04
21,HHTRHQRTHTGEKPYKCTLCGENF,3.53
22,HITRHQRTHTGEKPYKCTLCGENF,2.59
23,HYTRHQRTHTGEKPYKCTLCGENF,3.3
24,HKTRHQRTHTGEKPYKCTLCGENF,3.38

row,Variant,protein stability index
1,HTTRHQRTHTGEKPYKCTLCGENF,3.14
2,HLTRHQRTYTGEKPYKCTLCGENF,2.19
3,HLTRHQRTNTGEKPYKCTLCGENF,2.79
4,HLTRHQRTVTGEKPYKCTLCGENF,2.65
5,HLTRHQRTRTGEKPYKCTLCGENF,3.11
6,HLTRHQRTKTGEKPYKCTLCGENF,3.58
7,HLTRHQRTMTGEKPYKCTLCGENF,2.5
8,HLTRHQRTATGEKPYKCTLCGENF,2.67
9,HLTRHQRTITGEKPYKCTLCGENF,2.48
10,HLTRHQRTLTGEKPYKCTLCGENF,2.51
11,HLTRHQRTSTGEKPYKCTLCGENF,2.71
12,HLKRHQRTHTGEKPYKCTLCGENF,3.1
13,HLIRHQRTHTGEKPYKCTLCGENF,2.33
14,HLQRHQRTHTGEKPYKCTLCGENF,3.28
15,HLDRHQRTHTGEKPYKCTLCGENF,3.77
16,HLWRHQRTHTGEKPYKCTLCGENF,2.31
17,HLMRHQRTHTGEKPYKCTLCGENF,2.63
18,HLRRHQRTHTGEKPYKCTLCGENF,3.77
19,HLPRHQRTHTGEKPYKCTLCGENF,2.48
20,HLNRHQRTHTGEKPYKCTLCGENF,3.6
21,HLFRHQRTHTGEKPYKCTLCGENF,2.3
22,HLVRHQRTHTGEKPYKCTLCGENF,2.93

# Source: the supplement of paper PMC10567573
